# According to patent US20110105397A1, “METHOD FOR TREATING HEART FAILURE WITH STRESSCOPIN-LIKE PEPTIDES” (priority 2009, published 2011):
# Where no end group is shown, it is not given here. The star is where a group is joined. Succinimide(1-Et,3-yl) = CCN1C(=O)CC(*)C1=O
# T1: human corticotrophin releasing hormone receptor type 2 (CRHR2) (human, UniProt Q13324 1-411)
# T1 sequence (looked up): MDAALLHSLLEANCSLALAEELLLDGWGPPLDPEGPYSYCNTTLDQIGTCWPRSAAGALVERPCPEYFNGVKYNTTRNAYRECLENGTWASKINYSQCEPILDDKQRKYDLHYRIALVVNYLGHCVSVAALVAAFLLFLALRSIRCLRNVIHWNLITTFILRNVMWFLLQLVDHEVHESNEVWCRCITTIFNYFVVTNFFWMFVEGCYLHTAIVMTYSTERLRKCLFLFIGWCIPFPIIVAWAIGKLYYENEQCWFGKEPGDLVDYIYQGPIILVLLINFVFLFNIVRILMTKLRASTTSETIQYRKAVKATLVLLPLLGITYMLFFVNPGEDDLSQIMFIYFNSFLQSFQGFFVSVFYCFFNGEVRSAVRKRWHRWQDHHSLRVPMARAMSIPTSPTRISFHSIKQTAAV
# Target: T1, human corticotrophin releasing hormone …
# Test: cell-based or functional assay
Log DR,pA50,Binder
0.04 log10,9.43 -log10(M),"TKFTLSLDVPTNIMNLLFNIAKAKNLRAQAC(Succinimide(1-Et,3-yl))ANAHLMAQI-NH2 (N-terminus assumed; SMILES CC[C@H](C)[C@H](NC(=O)[C@H](CCC(N)=O)NC(=O)[C@H](C)NC(=O)[C@H](CCSC)NC(=O)[C@H](CC(C)C)NC(=O)[C@H](Cc1c[nH]cn1)NC(=O)[C@H](C)NC(=O)[C@H](CC(N)=O)NC(=O)[C@H](C)NC(=O)[C@H](CSC1CC(=O)N(CC)C1=O)NC(=O)[C@H](C)NC(=O)[C@H](CCC(N)=O)NC(=O)[C@H](C)NC(=O)[C@H](CCCNC(=N)N)NC(=O)[C@H](CC(C)C)NC(=O)[C@H](CC(N)=O)NC(=O)[C@H](CCCCN)NC(=O)[C@H](C)NC(=O)[C@H](CCCCN)NC(=O)[C@H](C)NC(=O)[C@@H](NC(=O)[C@H](CC(N)=O)NC(=O)[C@H](Cc1ccccc1)NC(=O)[C@H](CC(C)C)NC(=O)[C@H](CC(C)C)NC(=O)[C@H](CC(N)=O)NC(=O)[C@H](CCSC)NC(=O)[C@@H](NC(=O)[C@H](CC(N)=O)NC(=O)[C@@H](NC(=O)[C@@H]1CCCN1C(=O)[C@@H](NC(=O)[C@H](CC(=O)O)NC(=O)[C@H](CC(C)C)NC(=O)[C@H](CO)NC(=O)[C@H](CC(C)C)NC(=O)[C@@H](NC(=O)[C@H](Cc1ccccc1)NC(=O)[C@H](CCCCN)NC(=O)[C@@H](N)[C@@H](C)O)[C@@H](C)O)C(C)C)[C@@H](C)O)[C@@H](C)CC)[C@@H](C)CC)C(N)=O) [Cys-variant of stresscopin peptide with N-Ethylsuccinimide (NES) reactive group SEQ ID NO: 46]"
0.03 log10,9.44 -log10(M),"TKFTLSLDVPTNIMNLLFNIAKAKNC(Succinimide(1-Et,3-yl))RAQAAANAHLMAQI-NH2 (N-terminus assumed; SMILES CC[C@H](C)[C@H](NC(=O)[C@H](CCC(N)=O)NC(=O)[C@H](C)NC(=O)[C@H](CCSC)NC(=O)[C@H](CC(C)C)NC(=O)[C@H](Cc1c[nH]cn1)NC(=O)[C@H](C)NC(=O)[C@H](CC(N)=O)NC(=O)[C@H](C)NC(=O)[C@H](C)NC(=O)[C@H](C)NC(=O)[C@H](CCC(N)=O)NC(=O)[C@H](C)NC(=O)[C@H](CCCNC(=N)N)NC(=O)[C@H](CSC1CC(=O)N(CC)C1=O)NC(=O)[C@H](CC(N)=O)NC(=O)[C@H](CCCCN)NC(=O)[C@H](C)NC(=O)[C@H](CCCCN)NC(=O)[C@H](C)NC(=O)[C@@H](NC(=O)[C@H](CC(N)=O)NC(=O)[C@H](Cc1ccccc1)NC(=O)[C@H](CC(C)C)NC(=O)[C@H](CC(C)C)NC(=O)[C@H](CC(N)=O)NC(=O)[C@H](CCSC)NC(=O)[C@@H](NC(=O)[C@H](CC(N)=O)NC(=O)[C@@H](NC(=O)[C@@H]1CCCN1C(=O)[C@@H](NC(=O)[C@H](CC(=O)O)NC(=O)[C@H](CC(C)C)NC(=O)[C@H](CO)NC(=O)[C@H](CC(C)C)NC(=O)[C@@H](NC(=O)[C@H](Cc1ccccc1)NC(=O)[C@H](CCCCN)NC(=O)[C@@H](N)[C@@H](C)O)[C@@H](C)O)C(C)C)[C@@H](C)O)[C@@H](C)CC)[C@@H](C)CC)C(N)=O) [Cys-variant of stresscopin peptide with N-Ethylsuccinimide (NES) reactive group SEQ ID NO: 48]"
-0.01 log10,9.48 -log10(M),"TKFTLSLDVPTNIMNLLFNIAKAKNLRAQAAC(Succinimide(1-Et,3-yl))NAHLMAQI-NH2 (N-terminus assumed; SMILES CC[C@H](C)[C@H](NC(=O)[C@H](CCC(N)=O)NC(=O)[C@H](C)NC(=O)[C@H](CCSC)NC(=O)[C@H](CC(C)C)NC(=O)[C@H](Cc1c[nH]cn1)NC(=O)[C@H](C)NC(=O)[C@H](CC(N)=O)NC(=O)[C@H](CSC1CC(=O)N(CC)C1=O)NC(=O)[C@H](C)NC(=O)[C@H](C)NC(=O)[C@H](CCC(N)=O)NC(=O)[C@H](C)NC(=O)[C@H](CCCNC(=N)N)NC(=O)[C@H](CC(C)C)NC(=O)[C@H](CC(N)=O)NC(=O)[C@H](CCCCN)NC(=O)[C@H](C)NC(=O)[C@H](CCCCN)NC(=O)[C@H](C)NC(=O)[C@@H](NC(=O)[C@H](CC(N)=O)NC(=O)[C@H](Cc1ccccc1)NC(=O)[C@H](CC(C)C)NC(=O)[C@H](CC(C)C)NC(=O)[C@H](CC(N)=O)NC(=O)[C@H](CCSC)NC(=O)[C@@H](NC(=O)[C@H](CC(N)=O)NC(=O)[C@@H](NC(=O)[C@@H]1CCCN1C(=O)[C@@H](NC(=O)[C@H](CC(=O)O)NC(=O)[C@H](CC(C)C)NC(=O)[C@H](CO)NC(=O)[C@H](CC(C)C)NC(=O)[C@@H](NC(=O)[C@H](Cc1ccccc1)NC(=O)[C@H](CCCCN)NC(=O)[C@@H](N)[C@@H](C)O)[C@@H](C)O)C(C)C)[C@@H](C)O)[C@@H](C)CC)[C@@H](C)CC)C(N)=O) [Cys-variant of stresscopin peptide with N-Ethylsuccinimide (NES) reactive group SEQ ID NO: 45]"
-0.03 log10,9.5 -log10(M),"TKFTLSLDVPTNIMNLLFNIAKAKNLRC(Succinimide(1-Et,3-yl))QAAANAHLMAQI-NH2 (N-terminus assumed; SMILES CC[C@H](C)[C@H](NC(=O)[C@H](CCC(N)=O)NC(=O)[C@H](C)NC(=O)[C@H](CCSC)NC(=O)[C@H](CC(C)C)NC(=O)[C@H](Cc1c[nH]cn1)NC(=O)[C@H](C)NC(=O)[C@H](CC(N)=O)NC(=O)[C@H](C)NC(=O)[C@H](C)NC(=O)[C@H](C)NC(=O)[C@H](CCC(N)=O)NC(=O)[C@H](CSC1CC(=O)N(CC)C1=O)NC(=O)[C@H](CCCNC(=N)N)NC(=O)[C@H](CC(C)C)NC(=O)[C@H](CC(N)=O)NC(=O)[C@H](CCCCN)NC(=O)[C@H](C)NC(=O)[C@H](CCCCN)NC(=O)[C@H](C)NC(=O)[C@@H](NC(=O)[C@H](CC(N)=O)NC(=O)[C@H](Cc1ccccc1)NC(=O)[C@H](CC(C)C)NC(=O)[C@H](CC(C)C)NC(=O)[C@H](CC(N)=O)NC(=O)[C@H](CCSC)NC(=O)[C@@H](NC(=O)[C@H](CC(N)=O)NC(=O)[C@@H](NC(=O)[C@@H]1CCCN1C(=O)[C@@H](NC(=O)[C@H](CC(=O)O)NC(=O)[C@H](CC(C)C)NC(=O)[C@H](CO)NC(=O)[C@H](CC(C)C)NC(=O)[C@@H](NC(=O)[C@H](Cc1ccccc1)NC(=O)[C@H](CCCCN)NC(=O)[C@@H](N)[C@@H](C)O)[C@@H](C)O)C(C)C)[C@@H](C)O)[C@@H](C)CC)[C@@H](C)CC)C(N)=O) [Cys-variant of stresscopin peptide with N-Ethylsuccinimide (NES) reactive group SEQ ID NO: 47]"
0.8 log10,8.94 -log10(M),"TKFTLSLDVPTNIMNLLFNIAKAKNLRCQAAANAHLMAQI (NES-PEG MW30000 on Cys 28; C-terminal amide (-NH2)) [Pegylated Cys-variant stresscopin-like peptide, NES-PEG MW30000, SEQ ID NO: 99]"
1.9 log10,7.84 -log10(M),"TKFTLSLDVPTNIMNLLFNIAKAKNLRCQAAANAHLMAQI (NES-PEG MW80000 & BRANCHED on Cys 28; C-terminal amide (-NH2)) [Pegylated Cys-variant stresscopin-like peptide, NES-PEG MW80000 & BRANCHED, SEQ ID NO: 101]"
1.1 log10,8.64 -log10(M),"TKFTLSLDVPTNIMNLLFNIAKAKNLRCQAAANAHLMAQI (NES-PEG MW40000 on Cys 28; C-terminal amide (-NH2)) [Pegylated Cys-variant stresscopin-like peptide, NES-PEG MW40000, SEQ ID NO: 100]"
~1.97 log10,~7.5 -log10(M),"TKFTLSLDVPTNIMNLLFNIAKAKNLRAQAAAC(Succinimide(1-Et,3-yl))AHLMAQI-NH2 (N-terminus assumed; SMILES CC[C@H](C)[C@H](NC(=O)[C@H](CCC(N)=O)NC(=O)[C@H](C)NC(=O)[C@H](CCSC)NC(=O)[C@H](CC(C)C)NC(=O)[C@H](Cc1c[nH]cn1)NC(=O)[C@H](C)NC(=O)[C@H](CSC1CC(=O)N(CC)C1=O)NC(=O)[C@H](C)NC(=O)[C@H](C)NC(=O)[C@H](C)NC(=O)[C@H](CCC(N)=O)NC(=O)[C@H](C)NC(=O)[C@H](CCCNC(=N)N)NC(=O)[C@H](CC(C)C)NC(=O)[C@H](CC(N)=O)NC(=O)[C@H](CCCCN)NC(=O)[C@H](C)NC(=O)[C@H](CCCCN)NC(=O)[C@H](C)NC(=O)[C@@H](NC(=O)[C@H](CC(N)=O)NC(=O)[C@H](Cc1ccccc1)NC(=O)[C@H](CC(C)C)NC(=O)[C@H](CC(C)C)NC(=O)[C@H](CC(N)=O)NC(=O)[C@H](CCSC)NC(=O)[C@@H](NC(=O)[C@H](CC(N)=O)NC(=O)[C@@H](NC(=O)[C@@H]1CCCN1C(=O)[C@@H](NC(=O)[C@H](CC(=O)O)NC(=O)[C@H](CC(C)C)NC(=O)[C@H](CO)NC(=O)[C@H](CC(C)C)NC(=O)[C@@H](NC(=O)[C@H](Cc1ccccc1)NC(=O)[C@H](CCCCN)NC(=O)[C@@H](N)[C@@H](C)O)[C@@H](C)O)C(C)C)[C@@H](C)O)[C@@H](C)CC)[C@@H](C)CC)C(N)=O) [Cys-variant of stresscopin peptide with N-Ethylsuccinimide (NES) reactive group SEQ ID NO: 44]"
0.18 log10,9.5 -log10(M),"TKFTLSLDVPTNIMNLLFNIAKAKNLRCQAAANAHLMAQI-NH2 (not fully specified (residue 28); also: PEG with maleimide at both ends, peptide chains per PEG not given here) [Pegylated Cys-variant stresscopin-like peptide, NES-PEG MW20000 & DOUBLE-ENDED, SEQ ID NO: 98]"
